Laboratory results: patent publication US20190032056A1 (VITRISA THERAPEUTICS, published 2019)

Molecular target: complement Factor D present in C1q-depleted human serum (human, UniProt P00746 26-253)
Experiment: cell-based or functional assay

complement Factor D present in C1q-depleted human serum, sequence (P00746 26-253 limits assumed): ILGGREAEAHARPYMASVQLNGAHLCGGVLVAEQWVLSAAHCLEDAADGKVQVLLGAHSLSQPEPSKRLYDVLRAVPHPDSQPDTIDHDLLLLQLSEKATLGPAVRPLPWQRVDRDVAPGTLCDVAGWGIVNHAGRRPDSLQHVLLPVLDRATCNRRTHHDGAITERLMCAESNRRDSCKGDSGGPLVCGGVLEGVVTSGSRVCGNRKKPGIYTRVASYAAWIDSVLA

B1: anti-fD Fab with an amino acid sequence of heavy chain variable region according to SEQ ID NO:7 and light chain variable region according to SEQ ID NO:8 (Fab)
heavy: EVQLVQSGPELKKPGASVKVSCKASGYTFTNYGMNWVRQAPGQGLEWMGWINTYTGETTYADDFKGRFVFSLDTSVSTAYLQISSLKAEDTAVYYCERGGVNNWGQGTLVTVSSASTKGPSVFPLAPSSKSTSGGTAALGCLVKDYFPEPVTVSWNSGALTSGVHTFPAVLQSSGLYSLSSVVTVPSSSLGTQTYICNVNHKPSNTKVDKKVEPKSCDKTHT
light: DIQVTQSPSSLSASVGDRVTITCITSTDIDDDMNWYQQKPGKVPKLLISGGNTLRPGVPSRFSGSGSGTDFTLTISSLQPEDVATYYCLQSDSLPYTFGQGTKVEIKRTVAAPSVFIFPPSDEQLKSGTASVVCLLNNFYPREAKVQWKVDNALQSGNSQESVTEQDSKDSTYSLSSTLTLSKADYEKHKVYACEVTHQGLSSPVTKSFNRGEC
  IC50 inhibiting alternative complement in human serum (fD-dependent lysis of rabbit red blood cells): 3.3 nM
